Source: the DeepSol protein solubility set

Assay: soluble on expression in E. coli; label from the status in PepcDB or PDB records

| Sequence | soluble on expression in E. coli |
| --- | --- |
| MKSEEAYSILDIVSESEGQGVVLTRSGSICVSFELREPECYSLTPEDIDRRDGMFREAFKFLPDGTYVHKQDVFLKERYCPDIAGGSFLDRADARHFRGRLYVSHTCVMHFVLSGLKSLEKAYISSPLSYKENLHKEDLARLDEFLEGVDNAVGIIRSMRDTEIAPMSGQEMRDFTAGYTTLFDAPGAVVDIHADTELRTGKKRARCFAVCDEIFLPDGSLDSCVRDDSLPPAGSLLYHPMLERLGMYLPYNHIVNQVVFFEGNGRLRERIARNIDIYGSNSGMSRSIKVQYQKLDELQQEILEENETLVRSFFSVCVFDESEAELEKADKKIRETLNLARLGYYIPGYENLAAVHFACVPGQIHLMPRKYLFLTTLPIALCFFLQCGSFRNDSEGIYVHDRMYQVPLRKDIWDAGKKRVNARNGMVIAGTGGGKSAFTLNLTQQLIEQDYTVVVVEFGKSFSQLCRLYPDISLHVDYDGRTALGINPFDLQGEELDNGSIEMLSGVVQKYWRHMFTKDESEKEVALTRFIQDYYENVREGHNFESFYNHVTEHYPEILARKHIPKDYFSLESFSLNCGEFLPGRRYENVCKDTGTDFSGKRFIVFELTQIKQDRFLSNLVMGMIFTVIQKKLLSDRRKRGVLIFDEYGETAQMVDTATGTGIHSSVAFCYQKIRKENGAVYTIIQNPDQLPENEHTKNIIANTDMLFVLPTKEVIYQSVIDRFRLTHPGQIALMKSMRNNFSGQRPYSECFMRLGEHYATVTRLEFSREKFLAFQTEGEIWSDLEEKNRRMSMEDAIEEYIREHQ | not soluble |
| MKSEILQQIKQYETIILHRHVRPDPDAYGSQMGLAEIIRASFPEKKVYSVGNDEVSLQFLGAVDEIADEVYKDALVIVCDTANQERVSDVRFSSGQKLIKIDHHPNDDAYGDLLWVDTTASSCSEMIVAFWETFSDELILNETAARLLYAGIVGDTGRFLYPSTTEETLRLSAHLVTFPFDRPALYRELYELPKNTVKLSGYILQNFVMDENGAATVYLSDTLLREFEVDPRDASALVSCIENVEGIKAWIMFIQEGPVFRARLRSKGPVINELAKEYGGGGHPLASGATLHNEEEIKEMTVKLARICAAKLEHHHHHH | soluble |
| MKSIPGDIPQYLLIKAQLQARIQSGALKSGDKLPSERELCAIFNTTRITIRESLAQLESSGLIWRADRRGWFVTPERLWLDPTQNTNFHKLCREQGREPKTALLSGVLTTVPVEVMEPLQLQPFDQIYLLTRLRYADGRAVCYCENHCLPARVPELLQYDLNGSLTEVYESHYNLVYTSMHLSFYPTAMPAQAAQALGVMEGRPALLLRRLNYDQHGRVLDLDIEYWRHDSLRIEVDTH | not soluble |
| MKSLTVIILYSEREQILEESIQSIWKLNLLEIIILVPNDRSNLYEIAKKHKCHIVLMGKYSTYYDGYEASVKAAKGDVLLFVDSNFLLSTNEMQRFIEPIVTNQADVVLNKIDKLIEIGKCPNMDIVWRKMLNEILSRPDLKSNSILSLPYALTKEVVENIGFNYMEDIVLSHMKIVNQGWRINDQYAINTLSKDETIEEGGYLIKKELSKNEKEKVERYLRGIAKWIEKKGRRVGFTDAGKRRDIVQKLGECKRYPSYHQGWGMHSSIYDGKQLSVIIPVQNEEETIEQVILEARKIEPLEIIVVVNGSTDQTANIAKRLGVTIIEYNERLGHNVGRAIGALEATGDILLFIDGDFSVSGSNLHHFTKAVSAGVDIALNDLNPMLHPPFYVVDVVKYMLNLAYNRPELSNGSLVAIPHAMSRSCLDAIGWESLLCPSLAQVKAILQGYRVECVHYVDVVKPNRIRLMENVSHNGHPPAVLRIIGDHVEALSYLIEQLEMDGKGDLEHHHHHH | not soluble |
| MKSPAPSRPQKMALIPACIFLCFAALSVQAEETPVTPQPPDILLGPLFNDVQNAKLFPDQKTFADAVPNSDPLMILADYRMQQNQSGFDLRHFVNVNFTLPKEGEKYVPPEGQSLREHIDGLWPVLTRSTENTEKWDSLLPLPEPYVVPGGRFREVYYWDSYFTMLGLAESGHWDKVADMVANFAHEIDTYGHIPNGNRSYYLSRSQPPFFALMVELLAQHEGDAALKQYLPQMQKEYAYWMDGVENLQAGQQEKRVVKLQDGTLLNRYWDDRDTPRPESWVEDIATAKSNPNRPATEIYRDLRSAAASGWDFSSRWMDNPQQLNTLRTTSIVPVDLNSLMFKMEKILARASKAAGDNAMANQYETLANARQKGIEKYLWNDQQGWYADYDLKSHKVRNQLTAAALFPLYVNAAAKDRANKMATATKTHLLQPGGLNTTSVKSGQQWDAPNGWAPLQWVATEGLQNYGQKEVAMDISWHFLTNVQHTYDREKKLVEKYDVSTTGTGGGGGEYPLQDGFGWTNGVTLKMLDLICPKEQPCDNVPATRPTVKSATTQPSTKEAQPTP | not soluble |
| MKSTEKKELSHFRLKLETYLNEHFPEMSGNNPFITARSDEALTAYCDAVAQGFSHPEAESMASEVLYQGLHFSRYDTLVSVLEREFEQELPSPLPERLAPILLKNKAIQSVFAKYDLTDDFEASPEYEHLYTELTGTIVLLIESNHLPTIGGGNDTV | soluble |
| MKTCFLSIWRVVDPIYFFFSRLSLIDNDQKSVFRVRLTKYKGHHVVLSDGTHIRKNDVLVKIHLHNIKLIRELQSIESAVRKGIIIYQKVYPSMPLLLDYINNHKKSEKIKGNHWITMLDKGVERLGFDVITPVNPFYRCFKKVSHVPILYLTSKPVSLRHLPNSSYLFISKEKLQKTYQKKDMAGDPLEHHHHHH | not soluble |
| MKTDGEFVSEHLMELITQQNLTINRVATLAGLNQSTVNAMFEGRSKRPTITTIRKVCGTLGISVHDFFDFPPYNEVEK | soluble |
| MKTHQYELIDEKVFEHEFDNGLKLFIIPKPGFQKTYVTYTTQFGSLDNHFKPIGSQQFVKVPDGVAHFLEHKLFEKEDEDLFTAFAEENAQANAFTSFDRTSYLFSATSNIESNIKRLLNMVETPYFTEETVNKEKGIIAEEIKMYQEQPGYKLMFNTLRAMYSKHPIRVDIAGSVESIYEITKDDLYLCYETFYHPSNMVLFVVGDVSPQSIIKLVEKH | not soluble |
| MKTIGILGGMGPLATAELFRRIVIKTPAKRDQEHPKVIIFNNPQIPDRTAYILGKGEDPRPQLIWTAKRLEECGADFIIMPCNTAHAFVEDIRKAIKIPIISMIEETAKKVKELGFKKAGLLATTGTIVSGVYEKEFSKYGVEIMTPTEDEQKDVMRGIYEGVKAGNLKLGRELLLKTAKILEERGAECIIAGCTEVSVVLKQDDLKVPLIDPMDVIAEVAVKVALEK | soluble |
| MKTITQQYLTGERALFKAHDLEIDNTTFADGESPLKESRNVTLKQPIFKWKYPLWYSQHVTVDQGLFETMSRSGIWYTKDITITNSTLQAPKLFRRASQVKLAHVHFSDAEETLWNCQDITLNDVQAAGDYFGMNSQNIRIDGFNLVGNYAFDGAKNVEIHHATLMTKDALWNCENVTVYDSQIIGEYLGWNSKNIRFVNCTIESDQGLCYMDNVKLENCTLLNTDLAFEYCRNIDADVVSTIDSVKNPLSGRIHAQAIGEIIMDDPEVDPHQTLISVDHESRAPHAV | not soluble |
| MKTKTARLFALTALTAATTMPLAAQVSAQEASPREATISVSGEGQAAIAPDMAILSFSVVKQAETAAAALTENSKALAEVLKALKEAAIEDRDLQTSNFSVQPLYKHYEPKDGVYVAPEITGYQVSNGLTVRVRDLKMLGTILDTSVKLGINQGGDITFTNDKPEATVTEARKQAVADAIAKAKTLTEAAGVKLGRVIQISENSQRPMPVPAGMMRASMMKEADSVPIASGENNYSVVVNVTFALDQ | not soluble |
| MKTTTATNSILFKLYFAPGATEQISIEYYNLQQLIEKLELKLGELGLNFNVVFWKNDKGNLISMSQNAQRVLKKMANRDSASIFVIADSDSSDSSSDSSDSGDEDVIIADAPEVAPHRRHCGRRDRSRSRGFDRSRSRSRSRSNFHDHHKRHQMKKLMWKRFQESHGHPEFKRRHCFGGRRARSASPIGRRPCREGEEFKRHPLGSFGTPCGREEFEGPTGGFGRPFGRRGMDHHGFNFHRHHHPFGAFHGFGGHHHGFGHGFGHHGFKRQHPFERRFGRC | not soluble |
| MKTYRIRKPKIVVVGGGTGLPVILKSLRNQSVDITAVVTVADDGGSSGELRSSINNMTPPGDLRNVLVALSDMPQLYEDIFQYRFDKSDSHFANHAIGNLIIAAVSEMRGSTYEAIQLLSKMMHVDGRIYPSSERPLTLHAVFKDGSVAVGESKIALDRKTIDHVFVTNTHGEEQPRAARKVVKAIEEADMVVLGPGSLFTSILPNLVITEIGEAIKQTAAEVVYICNIMTQKGETEHFTDADHVRVLNEHLQAQFVDTVLVNTEKVPENYMDPEIYDEYLVQVKHDFQGLREEGCRVISTDFLELRDGGVFHDGEKVVEELFRIVFGTKYLEHHHHHH | soluble |
| MKVAIVGVSGAVGQEFLRVLDERNFPMDELVLFGSKRSAGTTYTFRGKQIEVKLLQHNDDFKGVDIAFTSAGAGTSKEFEKTITKYGAVMIDNSSAFRMDADVPLVVPEVNAADALERPRGVIANPNCTTIQMVVALKAIEQLSHIKTVHVSTYQAASGAGAAAMDELYEQYRQVLANEPVTVEKFAYQLAFNLIPQIDVFTENGYTKEEMKMYNETRKIMHSDVKVSATCVRVPALRAHSESIWVETERPISVEEAREAFAKGEGLVLQDNPAEKEYPMPLFLAGKDPVYVGRIRKDLTNENGLTFWIVGDQIKKGAALNAVQIAEYLIKVKNV | not soluble |
| MKVFDVHKFDMKKEQDFLQVQFNLKNRINLSPTIHPDSINTGAGVDLAYWEQDGEPYGVCCIIVIDADTKEVIEKVHSMGRISVPYVSGFLAFRELPLIIEAAKKLETEPDVFLFDGNGYLHYNHMGVATHAAFFLGKPTIGIAKTYLKIKGCDFVTPEIEVGAYTDIIIDGEVYGRALRTRRDVKPIFLSCGNYIDLDSSYQITMSLINQESRLPIPVRLADLETHVLRTFYQKNHVLEHHHHHH | soluble |
| MKVFTEKIPNIPWEERPEGYTGPVWRYSKNPIIGRNPVPKGARVFNSAVVPYNGEFVGVFRIDHKNTRPFLHFGRSKDGINWEIEPEEIQWVDVNGEPFQPSYAYDPRVVKIEDTYYITFCTDDHGPTIGVGMTKDFKTFVRLPNAYVPFNRNGVLFPRKINGKYVMLNRPSDNGHTPFGDIFLSESPDMIHWGNHRFVLGRSSYNWWENLKIGAGPYPIETSEGWLLIYHGVTLTCNGYVYSFGAALLDLDDPSKVLYRSRYYLLTPEEEYETVGFVPNVVFPCAALCDADTGRVAIYYGAADTHVALAFGYIDEIVDFVKRNSM | not soluble |
| MKVGIVGGGIVGLFTAYYLAKEGIKDIIIYEKGFLGAGSIHAAGLIEPYRFDKINTLSMIKKMLKYKMNGSTDIKEVDKLWLVELIKNLEKDPPGEAWDTMREMAKFSLSEYKRIAEEKNDFDYHEDGLLELYYNSKEFESGIEDEKKSPFNPKFEIEEIKGFAGGLFFPELSRISTEKFIDRISREIVSNIKVKNEEVIKVSDEGYIDGEKYDLVVVAAGIWSRILKIPLTAFKGYGYRVKGVSKLNRAAVIVDYGLAISPLSDHIKITGGFDADFSIDSKRAEDFLKKAEELVDIQYIIDLNMGFRPCSPDGFPVIGKRNNLVLVTGACRLGWSYGPAMGRYATDLALGKAKDLGYISRYYHELEHHHHHH | not soluble |
